Measured values from patent US20220049236A1 (YEDA RESEARCH AND DEVELOPMENT, published 2022).

Tests used:
[1] = biological target: T1, LOX catalytic domain (catalytic domain of human LOX, 169-417) (human, UniProt P28300 170-417); assay: ELISA, plate coated with LOX catalytic domain
T1 construct: Expressed from pET28 in E. coli BL21 SHuffle, purified on HisTrap and labelled through its His tag for MST
T1 sequence: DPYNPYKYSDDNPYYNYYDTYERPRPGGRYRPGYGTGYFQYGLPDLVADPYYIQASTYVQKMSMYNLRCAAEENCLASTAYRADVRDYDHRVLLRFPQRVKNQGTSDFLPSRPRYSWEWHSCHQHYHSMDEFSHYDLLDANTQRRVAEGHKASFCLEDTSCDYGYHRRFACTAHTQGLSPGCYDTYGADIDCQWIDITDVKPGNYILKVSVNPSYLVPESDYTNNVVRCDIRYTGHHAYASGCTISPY
Protocol: A ninety-six-well plate (Nunc) was coated with LOX-catalytic domain, HSP70 or BSA at 10 μg/mL. After blocking with 2% BSA in PBS, the plate was incubated with Fc and Fc-LPD for 1 hour at 37° C. Bound antibodies were detected by peroxidase-conjugated antibody goat anti-human (Jackson ImmunoResearch). EC₅₀ was calculated with GraphPad Prism from […] curve fitting analysis.
The pYD5-Fc-LPD plasmid was used as a template in order to create point mutations in the three N-glycosylated sites N81, 97, 144 in the LPD, which are the N346, 362, 409 in our Fc-LPD construct with Q SEQ ID NO: 11. The mutations were performed with site-directed mutagenesis according to kit manufacturer instructions. EC₅₀ of generated Fc-LPD N346, 362, 409Q inhibitor was measured by ELISA (FIG. 1C) ranged from 10 to 2000 nM against the LOX catalytic domain (EC₅₀=58 nmol/L).

[2] = biological target: T2, Heat shock cognate 71 kDa protein (human, UniProt P11142 2-646); assay: IP from HDF supernatant, LFQ mass spectrometry; ratio against Fc control
T2 construct: also called HSPA8
T2 sequence (P11142 2-646 limits assumed): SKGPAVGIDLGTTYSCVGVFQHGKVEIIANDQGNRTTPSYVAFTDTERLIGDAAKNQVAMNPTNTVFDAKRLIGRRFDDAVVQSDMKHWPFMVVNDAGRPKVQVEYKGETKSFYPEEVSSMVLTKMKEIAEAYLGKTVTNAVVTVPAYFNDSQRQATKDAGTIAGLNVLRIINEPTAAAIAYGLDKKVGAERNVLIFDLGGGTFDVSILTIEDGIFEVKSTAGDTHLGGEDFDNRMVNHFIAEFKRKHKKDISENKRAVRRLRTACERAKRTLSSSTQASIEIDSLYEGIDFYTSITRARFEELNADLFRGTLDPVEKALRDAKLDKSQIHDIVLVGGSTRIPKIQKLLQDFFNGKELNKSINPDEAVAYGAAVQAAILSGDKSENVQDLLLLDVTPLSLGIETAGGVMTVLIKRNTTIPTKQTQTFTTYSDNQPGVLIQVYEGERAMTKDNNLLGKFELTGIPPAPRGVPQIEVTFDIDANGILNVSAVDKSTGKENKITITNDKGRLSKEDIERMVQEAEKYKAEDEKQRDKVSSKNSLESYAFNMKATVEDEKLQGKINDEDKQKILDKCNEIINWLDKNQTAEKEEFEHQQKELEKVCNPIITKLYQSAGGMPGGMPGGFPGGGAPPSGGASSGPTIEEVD

Filaggrin-2 = biological target: T3, Filaggrin-2 (human, UniProt Q5D862 1-2391, limits assumed); assay: as above
T3 construct: also called FLG2
T3 sequence (Q5D862 whole entry): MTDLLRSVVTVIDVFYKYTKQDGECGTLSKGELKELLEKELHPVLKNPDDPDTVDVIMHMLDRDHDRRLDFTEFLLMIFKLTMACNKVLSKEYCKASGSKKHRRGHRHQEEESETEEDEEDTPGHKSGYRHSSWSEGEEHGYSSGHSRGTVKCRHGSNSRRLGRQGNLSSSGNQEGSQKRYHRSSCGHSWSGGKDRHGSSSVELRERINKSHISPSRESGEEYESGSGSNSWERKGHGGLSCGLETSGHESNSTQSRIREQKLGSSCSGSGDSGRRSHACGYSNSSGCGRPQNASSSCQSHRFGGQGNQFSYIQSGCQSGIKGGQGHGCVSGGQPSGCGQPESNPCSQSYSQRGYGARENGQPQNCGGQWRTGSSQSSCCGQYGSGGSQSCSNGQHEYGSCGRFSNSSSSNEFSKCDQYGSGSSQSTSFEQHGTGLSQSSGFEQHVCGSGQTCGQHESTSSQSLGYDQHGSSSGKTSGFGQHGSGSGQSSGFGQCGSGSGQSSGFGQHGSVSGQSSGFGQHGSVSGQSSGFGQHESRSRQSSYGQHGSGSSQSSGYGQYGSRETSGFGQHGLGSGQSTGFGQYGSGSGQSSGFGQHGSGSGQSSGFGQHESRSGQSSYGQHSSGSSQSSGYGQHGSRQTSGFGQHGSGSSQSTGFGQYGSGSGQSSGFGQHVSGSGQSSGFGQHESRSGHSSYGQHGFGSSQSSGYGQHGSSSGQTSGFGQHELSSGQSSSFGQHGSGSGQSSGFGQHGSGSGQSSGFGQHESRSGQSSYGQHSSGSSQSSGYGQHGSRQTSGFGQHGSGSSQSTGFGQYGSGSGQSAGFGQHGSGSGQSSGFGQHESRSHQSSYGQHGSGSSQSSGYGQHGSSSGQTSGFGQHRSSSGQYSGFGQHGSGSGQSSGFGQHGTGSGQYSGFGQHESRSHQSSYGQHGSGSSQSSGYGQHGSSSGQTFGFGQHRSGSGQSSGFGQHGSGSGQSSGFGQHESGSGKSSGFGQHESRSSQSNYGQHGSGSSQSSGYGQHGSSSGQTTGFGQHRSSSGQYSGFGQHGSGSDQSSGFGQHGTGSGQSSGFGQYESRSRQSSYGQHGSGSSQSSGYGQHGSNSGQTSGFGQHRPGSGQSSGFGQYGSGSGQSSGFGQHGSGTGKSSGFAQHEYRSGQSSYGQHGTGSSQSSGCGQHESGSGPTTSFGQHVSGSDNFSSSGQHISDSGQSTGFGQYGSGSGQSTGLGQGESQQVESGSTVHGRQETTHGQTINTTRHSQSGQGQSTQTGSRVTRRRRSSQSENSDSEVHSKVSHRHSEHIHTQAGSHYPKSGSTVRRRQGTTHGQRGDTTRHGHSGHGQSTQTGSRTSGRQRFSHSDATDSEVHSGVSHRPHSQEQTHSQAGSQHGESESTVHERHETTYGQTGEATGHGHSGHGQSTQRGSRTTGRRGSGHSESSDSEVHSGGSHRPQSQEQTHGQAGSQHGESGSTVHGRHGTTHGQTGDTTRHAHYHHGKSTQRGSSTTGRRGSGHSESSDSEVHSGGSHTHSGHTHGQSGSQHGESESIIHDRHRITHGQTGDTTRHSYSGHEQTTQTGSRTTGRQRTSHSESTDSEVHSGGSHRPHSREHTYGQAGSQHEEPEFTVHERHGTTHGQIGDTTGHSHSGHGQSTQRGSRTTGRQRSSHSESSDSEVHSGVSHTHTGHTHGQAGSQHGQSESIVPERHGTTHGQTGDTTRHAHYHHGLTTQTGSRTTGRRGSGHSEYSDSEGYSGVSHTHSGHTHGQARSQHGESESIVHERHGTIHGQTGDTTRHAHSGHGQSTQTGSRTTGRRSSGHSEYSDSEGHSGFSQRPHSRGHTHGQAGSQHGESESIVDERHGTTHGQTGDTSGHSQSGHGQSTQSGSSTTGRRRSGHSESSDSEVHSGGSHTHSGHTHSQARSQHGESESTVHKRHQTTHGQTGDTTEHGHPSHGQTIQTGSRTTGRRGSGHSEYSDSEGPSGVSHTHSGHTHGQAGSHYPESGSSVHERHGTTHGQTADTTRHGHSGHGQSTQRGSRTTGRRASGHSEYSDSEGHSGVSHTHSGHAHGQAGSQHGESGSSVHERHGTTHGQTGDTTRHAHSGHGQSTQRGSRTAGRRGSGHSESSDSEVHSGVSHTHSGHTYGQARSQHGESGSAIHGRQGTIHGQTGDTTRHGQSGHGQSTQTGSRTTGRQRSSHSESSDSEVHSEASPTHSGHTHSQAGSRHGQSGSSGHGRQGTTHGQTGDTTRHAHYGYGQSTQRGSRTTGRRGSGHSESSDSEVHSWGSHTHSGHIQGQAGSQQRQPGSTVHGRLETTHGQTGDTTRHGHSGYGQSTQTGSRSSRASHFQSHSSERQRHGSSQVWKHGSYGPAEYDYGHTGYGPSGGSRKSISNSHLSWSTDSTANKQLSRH

[3] = biological target: T4, Heat shock 70 kDa protein 1A/B (human, UniProt P0DMV9 2-641); assay: as above
T4 construct: also called Heat shock 70 kDa protein 1B; HSPA1B
T4 sequence (P0DMV9 2-641 limits assumed): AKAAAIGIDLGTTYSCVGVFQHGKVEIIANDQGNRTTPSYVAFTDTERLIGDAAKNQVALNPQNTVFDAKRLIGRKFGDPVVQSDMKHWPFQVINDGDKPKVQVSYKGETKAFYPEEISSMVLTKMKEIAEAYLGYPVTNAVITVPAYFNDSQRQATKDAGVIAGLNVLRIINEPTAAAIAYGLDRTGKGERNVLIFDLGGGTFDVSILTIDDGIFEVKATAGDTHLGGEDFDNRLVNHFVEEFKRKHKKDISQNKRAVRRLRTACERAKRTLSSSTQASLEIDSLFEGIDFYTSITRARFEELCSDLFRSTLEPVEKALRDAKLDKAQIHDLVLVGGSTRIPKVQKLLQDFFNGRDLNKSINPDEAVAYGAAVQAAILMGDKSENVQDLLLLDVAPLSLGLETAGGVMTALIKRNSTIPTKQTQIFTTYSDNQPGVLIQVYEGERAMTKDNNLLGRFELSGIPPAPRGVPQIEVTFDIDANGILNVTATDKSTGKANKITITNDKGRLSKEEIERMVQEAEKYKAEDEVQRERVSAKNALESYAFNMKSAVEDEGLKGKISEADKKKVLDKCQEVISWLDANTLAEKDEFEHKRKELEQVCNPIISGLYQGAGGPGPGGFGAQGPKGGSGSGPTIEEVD

[4] = biological target: T5, Heat shock protein HSP 90-beta (human, UniProt P08238 2-724); assay: as above
T5 construct: also called HSP90AB1
T5 sequence (P08238 2-724 limits assumed): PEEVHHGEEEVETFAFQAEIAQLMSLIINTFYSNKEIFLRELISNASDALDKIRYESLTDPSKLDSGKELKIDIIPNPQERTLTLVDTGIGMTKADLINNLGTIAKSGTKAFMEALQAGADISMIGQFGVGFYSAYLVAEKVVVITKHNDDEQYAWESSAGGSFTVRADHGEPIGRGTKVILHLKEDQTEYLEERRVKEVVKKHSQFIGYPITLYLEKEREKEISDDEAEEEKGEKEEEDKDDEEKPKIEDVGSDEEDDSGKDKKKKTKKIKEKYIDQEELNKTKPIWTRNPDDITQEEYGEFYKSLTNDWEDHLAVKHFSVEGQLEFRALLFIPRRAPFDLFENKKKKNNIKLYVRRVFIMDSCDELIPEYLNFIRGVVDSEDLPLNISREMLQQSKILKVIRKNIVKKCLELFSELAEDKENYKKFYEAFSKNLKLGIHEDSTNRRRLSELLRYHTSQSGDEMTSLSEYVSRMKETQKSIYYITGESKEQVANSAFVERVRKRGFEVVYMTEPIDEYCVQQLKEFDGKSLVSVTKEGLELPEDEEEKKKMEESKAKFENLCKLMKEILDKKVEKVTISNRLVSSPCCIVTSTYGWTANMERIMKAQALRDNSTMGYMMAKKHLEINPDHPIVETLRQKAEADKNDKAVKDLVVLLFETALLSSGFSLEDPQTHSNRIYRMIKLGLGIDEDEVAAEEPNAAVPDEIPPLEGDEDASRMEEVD

Hornerin = biological target: T6, Hornerin (human, UniProt Q86YZ3 1-2850, limits assumed); assay: as above
T6 construct: also called HRNR

[5] = biological target: T7, 60 kDa heat shock protein, mitochondrial (human, UniProt P10809 27-573, limits assumed); assay: as above
T7 construct: also called HSPD1; HSP60
T7 sequence (P10809 27-573 limits assumed): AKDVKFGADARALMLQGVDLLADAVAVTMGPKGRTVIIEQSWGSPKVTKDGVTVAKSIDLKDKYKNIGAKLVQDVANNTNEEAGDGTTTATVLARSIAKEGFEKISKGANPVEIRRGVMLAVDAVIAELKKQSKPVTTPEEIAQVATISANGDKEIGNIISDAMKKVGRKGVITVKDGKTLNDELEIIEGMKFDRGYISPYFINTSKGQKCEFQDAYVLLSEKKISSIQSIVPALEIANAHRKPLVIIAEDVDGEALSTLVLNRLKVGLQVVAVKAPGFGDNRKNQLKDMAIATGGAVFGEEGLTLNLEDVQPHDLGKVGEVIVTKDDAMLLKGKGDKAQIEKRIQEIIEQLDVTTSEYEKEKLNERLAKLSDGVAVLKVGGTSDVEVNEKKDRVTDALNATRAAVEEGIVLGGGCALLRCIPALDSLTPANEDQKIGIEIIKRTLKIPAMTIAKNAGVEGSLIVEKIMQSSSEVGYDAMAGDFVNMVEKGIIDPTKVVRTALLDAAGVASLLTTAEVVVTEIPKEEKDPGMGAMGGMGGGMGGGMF

[6] = biological target: T8, Heat shock protein HSP 90-alpha (human, UniProt P07900 2-732); assay: as above
T8 construct: also called HSP90AA1

B1: Fc-LPD N346, 362, 409Q (Fc fusion)
chain: APPAAGQQQPPREPPAAPGAWRQQIQWENNGQVFSLLSLGSQYQPQRRRDPGAAVPGAAQASAQQPRTPILLIRDQRTAAARTRTAGSSGVTAGRPRPTARHWFQAGYSTSRAREAGASRAEQQTAPGEVPALSNLRPPSRVDGMVGD
notes: Fc-LPD with the three N-glycosylation sites N81, 97, 144 of the LPD (N346, 362, 409 in the construct) changed to Q by site-directed mutagenesis of pYD5-Fc-LPD; also called non-glycosylated form
EC50 [1]: 0.058 µM | Ratio Fc-LPD-N346, 409, 456Q:Fc [2]: 0.9 | Ratio Fc-LPD-N346, 409, 456Q:Fc (Filaggrin-2): 0 | Ratio Fc-LPD-N346, 409, 456Q:Fc [3]: 30 | Ratio Fc-LPD-N346, 409, 456Q:Fc [4]: 1.8 | Ratio Fc-LPD-N346, 409, 456Q:Fc (Hornerin): 0.2 | Ratio Fc-LPD-N346, 409, 456Q:Fc [5]: 0.1 | Ratio Fc-LPD-N346, 409, 456Q:Fc [6]: 0.2
